A short description of this series: Ex vivo biodistribution screen of 111In-labeled DOTA-TATE derivatives in normal mice. Further details: species or system athymic nude mice. Particulars: 2 h post-injection; for tissue uptake at 2 h: athymic nude, mouse, iv, 1 ug per mouse, total radioactivity; for Relative kidney retention, % rel. to DOTA-TATE: normal mice, 111In-DOTA-TATE set as 100%. The protocol:
The panel of 10 compounds were then tested in an initial biodistribution screen of 9 organs assessed in non-tumor-bearing mice at specific timepoints following administration of the radioconjugates. Each agent was initially labeled with ^111In, a long-lived gamma-emitting radioisotope suitable for biodistribution studies, with high radiochemical yields and purity (Fig. S12). The compounds were then dosed (1.55 ± 0.12 MBq; 1 μg per mouse) in healthy athymic nude mice via intravenous (i.v.) injection in phosphate-buffered saline (PBS; vehicle). After 2 hours, the mice were sacrificed and ex vivo biodistribution analysis was performed (Fig. 2). […] This was an expected finding because this variant was designed to bind serum albumin.
Radiolabeling and In Vivo Evaluation of DOTA-TATE Variants:
Biodistribution, PET Quantification, and Dosimetry
Radiolabeling: To perform the initial biodistribution screen, radiolabeling of 10 compounds, including DOTA-TATE, was carried out using 111In (Cardinal Health, Arbutus, MD, USA), an affordable and readily available gamma -emitting radioisotope with a moderate half -life (2.83 days), which affords efficient DOTA radiolabeling and facilitates handling. 111InCl3 (28 – 36 MBq) was diluted with 0.4 M NH 4OAc buffer (pH 5.2) and combined with DOTA -TATE variants (20 μg). The solution was mixed well and then incubated at 90 °C for 30 min.
Radiolabeling efficiency and radiochemical purity were determined by radio -TLC and radio - HPLC. Radiochemical yield was >95% and the material was used without further purification.
The specific activity was 1.55 ± 0.12 TBq/g (41.9 ± 3.2 Ci/g). […]
Radio-instant thin-layer chromatography (radio-iTLC) was performed using silicic acid-impregnated glass microfiber paper strips (iTLC-SA, Varian, Lake Forest, CA, USA) as the stationary phase, and 50 mM EDTA in 100 mM NH4OAc (pH 5.5) as the mobile phase, analyzed with a radio-TLC scanner (AR-2000, Eckert-Ziegler, Wilmington, MA, USA). For Ac-225, equilibration was allowed for at least 12 hours before scanning the TLC strips to confirm initial scans. Radio-HPLC analysis (Agilent 1260 Infinity II, Agilent Technologies Inc., Santa Clara, CA, USA) was conducted on a TSK- Octadecyl-4PW column (5 µm, 4.6 mm ID × 15 cm, Tosoh
Co. Tokyo, Japan) with gradient elution using 0.1% trifluoroacetic acid in water as mobile phase A and 0.1% trifluoroacetic acid in acetonitrile as Mobile phase B. The elution sequence was 0-5 […]
PET imaging and biodistribution: For initial biodistribution screen studies, normal mice were administered 1.4 – 1.8 MBq (1 μg) of 111In-DOTA-TATE variants via tail vein injection and biodistribution studies were conducted at 2 hours post -injection (n = 2 – 4 per cohort).
For studies involving three variants (DOTA -TATE, DOTA-MVK(ε)-TATE, and DOTA-β-Gal-TATE), AR42J cells (5 × 10^6 cells per mouse) were subcutaneously inoculated into the right shoulder of the mice. Tumors were allowed to grow for 3 weeks, reaching a volume of 100 –200 mm³ before being used in subsequent experiments. For biodistribution or PET imaging studies, mice bearing subcutaneous AR42J tumors were administered 1.4 – 1.8 MBq (1 μg) of 111In-labeled DOTA-TATE variants or 2.7 – 4.9 MBq (1 μg) of 86Y-labeled DOTA-TATE variants via tail vein injection. Biodistribution studies with 111In-labeled DOTA -TATE variants were performed 1 hour post -injection (n = 3 per cohort), while studies with 86Y-labeled DOTA-TATE variants were conducted at 1, 4, and 24 hours post -injection (n = 3 per cohort). Mice were euthanized by CO2 asphyxiation, and 10 tissues, including tumors, were collected. All samples were weighed and counted on a gamma counter (2480 Wizard 3, Perkin Elmer Inc., Waltham, MA, USA). Results are presented as percentage of injected activity per gram (%IA/g) and mean values ± standard deviations.
PET imaging to assess the uptake of three 86Y-labeled DOTA-TATE variants (2.7 – 4.9 MBq, 1 […]

[1] abbreviates: blood, normal athymic nude mice, i.v. 1 μg (1.4–1.8 MBq), ex vivo gamma counting, mean, n = 2–4, read-out: Blood uptake.
The mark [2] stands for this setting: kidney, normal athymic nude mice, i.v. 1 μg, ex vivo, mean (± SD), n = 2–4, read-out: Kidney uptake.
The mark [3] stands for this setting: femur, normal athymic nude mice, i.v. 1 μg, ex vivo, mean, n = 2–4, read-out: Femur uptake.
Setting [4] is: heart, normal athymic nude mice, i.v. 1 μg, ex vivo, mean, n = 2–4, read-out: Heart uptake.
The mark [5] stands for this setting: intestine, normal athymic nude mice, i.v. 1 μg, ex vivo, mean, n = 2–4, read-out: Intestine uptake.
[6] abbreviates: liver, normal athymic nude mice, i.v. 1 μg, ex vivo, mean, n = 2–4, read-out: Liver uptake.
Setting [7] is: lung, normal athymic nude mice, i.v. 1 μg, ex vivo, mean, n = 2–4, read-out: Lung uptake.
Where [8] appears, read: muscle, normal athymic nude mice, i.v. 1 μg, ex vivo, mean, n = 2–4, read-out: Muscle uptake.
[9] abbreviates: spleen, normal athymic nude mice, i.v. 1 μg, ex vivo, mean, n = 2–4, read-out: Spleen uptake.

Like-named read-outs stand apart in the source and are kept apart here. Positions of bridges follow the written chain, without caps; N, C: chain ends. Non-standard residues stand in square brackets, D forms with d. Residues, ends and D or L forms follow the SMILES beside them. *: point of attachment. X1 = C[C@H](CCC(=O)*)[C@H]1CC[C@H]2[C@@H]3[C@H](O)C[C@@H]4C[C@@H](NC(=O)CNC(=O)CN5CCN(CC(=O)O)CCN(CC(=O)O)CCN(CC(=O)O)CC5)CC[C@]4(C)[C@H]3C[C@H](O)[C@]12C; DOTA = O=C(O)CN1CCN(CC(=O)O)CCN(CC(=O)*)CCN(CC(=O)O)CC1

Regarding `C[C@H](CCC(=O)NCC(=O)N[C@H](Cc1ccccc1)C(=O)N[C@H]1CSSC[C@@H](C(=O)N[C@H](C(=O)O)[C@@H](C)O)NC(=O)[C@H]([C@@H](C)O)NC(=O)[C@H](CCCCN)NC(=O)[C@@H](Cc2c[nH]c3ccccc23)NC(=O)[C@H](Cc2ccc(O)cc2)NC1=O)[C@H]1CC[C@H]2[C@@H]3[C@H](O)C[C@@H]4C[C@@H](NC(=O)CNC(=O)CN5CCN(CC(=O)O)CCN(CC(=O)O)CCN(CC(=O)O)CC5)CC[C@]4(C)[C@H]3C[C@H](O)[C@]12C` [DOTA-G-Chol-G-TATE] (X1-G[dF]CY[dW]KTCT-OH; disulfide 3-8), the tissue uptake at 2 h is, setting by setting: under setting [1], 1.7 %ID/g; under setting [2], 9.6 %ID/g.

With `C[C@@H](O)[C@H](NC(=O)[C@@H]1CSSC[C@H](NC(=O)[C@@H](Cc2ccccc2)NC(=O)CNC(=O)[C@H](CC(=O)O)NC(=O)[C@H](CC(=O)O)NC(=O)[C@H](CC(=O)O)NC(=O)CNC(=O)CN2CCN(CC(=O)O)CCN(CC(=O)O)CCN(CC(=O)O)CC2)C(=O)N[C@@H](Cc2ccc(O)cc2)C(=O)N[C@H](Cc2c[nH]c3ccccc23)C(=O)N[C@@H](CCCCN)C(=O)N[C@@H]([C@@H](C)O)C(=O)N1)C(=O)O` [DOTA-GDDDG-TATE] ({DOTA}-GDDDG[dF]CY[dW]KTCT-OH; disulfide 7-12), the tissue uptake at 2 h under setting [2] was determined as 13 %ID/g.

For `CSCC[C@H](NC(=O)CN1CCN(CC(=O)O)CCN(CC(=O)O)CCN(CC(=O)O)CC1)C(=O)N[C@H](C(=O)N[C@@H](CCCCNC(=O)CCCC(=O)N[C@H](Cc1ccccc1)C(=O)N[C@H]1CSSC[C@@H](C(=O)N[C@H](C(=O)O)[C@@H](C)O)NC(=O)[C@H]([C@@H](C)O)NC(=O)[C@H](CCCCN)NC(=O)[C@@H](Cc2c[nH]c3ccccc23)NC(=O)[C@H](Cc2ccc(O)cc2)NC1=O)C(=O)O)C(C)C` [DOTA-MVK(ε)-TATE], the tissue uptake at 2 h under setting [2] amounted to 4 %ID/g.

As for `CSCC[C@H](NC(=O)CN1CCN(CC(=O)O)CCN(CC(=O)O)CCN(CC(=O)O)CC1)C(=O)N[C@H](C(=O)N[C@@H](CCCCN)C(=O)N[C@H](Cc1ccccc1)C(=O)N[C@H]1CSSC[C@@H](C(=O)N[C@H](C(=O)O)[C@@H](C)O)NC(=O)[C@H]([C@@H](C)O)NC(=O)[C@H](CCCCN)NC(=O)[C@@H](Cc2c[nH]c3ccccc23)NC(=O)[C@H](Cc2ccc(O)cc2)NC1=O)C(C)C` [DOTA-MVK-TATE] ({DOTA}-MVK[dF]CY[dW]KTCT-OH; disulfide 5-10), the tissue uptake at 2 h under setting [2] is 76 %ID/g.

As to `C[C@@H](O)[C@H](NC(=O)[C@@H]1CSSC[C@H](NC(=O)[C@@H](Cc2ccccc2)NC(=O)CN2CCN(CC(=O)O)CCN(CC(=O)O)CCN(CC(=O)O)CC2)C(=O)N[C@@H](Cc2ccc(O)cc2)C(=O)N[C@H](Cc2c[nH]c3ccccc23)C(=O)N[C@@H](CCCCN)C(=O)N[C@@H]([C@@H](C)O)C(=O)N1)C(=O)O` [DOTA-TATE, reference compound], the tissue uptake at 2 h under setting [2] turned out to be 6.1 %ID/g.

`C[C@@H](O)[C@H](NC(=O)[C@@H]1CSSC[C@H](NC(=O)[C@@H](Cc2ccccc2)NC(=O)CCCC(=O)Nc2cc(COC(=O)N(C)CCNC(=O)CN3CCN(CC(=O)O)CCN(CC(=O)O)CCN(CC(=O)O)CC3)ccc2O[C@@H]2O[C@H](CO)[C@H](O)[C@H](O)[C@H]2O)C(=O)N[C@@H](Cc2ccc(O)cc2)C(=O)N[C@H](Cc2c[nH]c3ccccc23)C(=O)N[C@@H](CCCCN)C(=O)N[C@@H]([C@@H](C)O)C(=O)N1)C(=O)O` [DOTA-β-Gal-TATE]: the tissue uptake at 2 h (in vivo, normal athymic nude mice, i.v. 1 μg, ex vivo, mean (± SD), n = 2–4, read-out: Kidney uptake) was found to be 4.1 %ID/g.

As to `C[C@H](CCC(=O)NCC(=O)N[C@H](Cc1ccccc1)C(=O)N[C@H]1CSSC[C@@H](C(=O)N[C@H](C(=O)O)[C@@H](C)O)NC(=O)[C@H]([C@@H](C)O)NC(=O)[C@H](CCCCN)NC(=O)[C@@H](Cc2c[nH]c3ccccc23)NC(=O)[C@H](Cc2ccc(O)cc2)NC1=O)[C@H]1CC[C@H]2[C@@H]3[C@H](O)C[C@@H]4C[C@@H](NC(=O)CNC(=O)CN5CCN(CC(=O)O)CCN(CC(=O)O)CCN(CC(=O)O)CC5)CC[C@]4(C)[C@H]3C[C@H](O)[C@]12C` [^111In-DOTA-Chol-TATE, metal not drawn] (X1-G[dF]CY[dW]KTCT-OH; disulfide 3-8), the “Relative kidney retention, % rel. to DOTA-TATE” value is 159%. Further, under setting [3], the tissue uptake at 2 h turned out to be 0.36 %ID/g. For the same compound, the tissue uptake at 2 h under setting [4] turned out to be 0.55 %ID/g. Also, under setting [5], the tissue uptake at 2 h was 0.83 %ID/g. The tissue uptake at 2 h under setting [6] came out at 1.32 %ID/g. Further, under setting [7], the tissue uptake at 2 h turned out to be 1.86 %ID/g. Besides, the tissue uptake at 2 h under setting [8] was found to be 0.15 %ID/g. Further, the tissue uptake at 2 h under setting [9] amounted to 0.48 %ID/g.

`C[C@@H](O)[C@H](NC(=O)[C@@H]1CSSC[C@H](NC(=O)[C@@H](Cc2ccccc2)NC(=O)CNC(=O)[C@H](CC(=O)O)NC(=O)[C@H](CC(=O)O)NC(=O)[C@H](CC(=O)O)NC(=O)CNC(=O)CN2CCN(CC(=O)O)CCN(CC(=O)O)CCN(CC(=O)O)CC2)C(=O)N[C@@H](Cc2ccc(O)cc2)C(=O)N[C@H](Cc2c[nH]c3ccccc23)C(=O)N[C@@H](CCCCN)C(=O)N[C@@H]([C@@H](C)O)C(=O)N1)C(=O)O` [^111In-DOTA-GDDDG-TATE, metal not drawn] ({DOTA}-GDDDG[dF]CY[dW]KTCT-OH; disulfide 7-12): the “Relative kidney retention, % rel. to DOTA-TATE” value came to 222%. Further, the tissue uptake at 2 h under setting [1] stood at 0.05 %ID/g. Besides, the tissue uptake at 2 h under setting [3] is 0.07 %ID/g. For the same compound, under setting [4], the tissue uptake at 2 h amounted to 0.04 %ID/g. Also, the tissue uptake at 2 h under setting [5] stood at 0.11 %ID/g. The tissue uptake at 2 h under setting [6] is 0.07 %ID/g. In addition, the tissue uptake at 2 h under setting [7] stood at 0.25 %ID/g. Moreover, under setting [8], the tissue uptake at 2 h was 0.02 %ID/g. Also, the tissue uptake at 2 h under setting [9] is 0.05 %ID/g. For the same compound, the Kidney uptake (normal athymic nude mice, i.v. 1 μg, ex vivo, mean (± SD), n = 2–4) is on record as 13.45 %IA/g.

(Values after article doi:10.1101/2025.09.11.675134, “Biodistribution-Driven Discovery Identifies a Glycosidase-Cleavable Linker to Reprogram Radiotheranostics” (bioRxiv, 2025).)
